Consider 15 molecules from article PMC4321732 (Structure (London, England : 1993), 2015).

*1 amine or outer side, *2 acyl side, *3 side chain or, on linkers, in order; H or OH if unused. Where no end group is shown, it is not given here. [ ]: non-standard residue; d: D form. KCme2 = N-dimethylated aminoethylcysteine, CN(C)CCSC[C@H](N[*:1])C(=O)[*:2]; Me2 = dimethyl group on the Lys side-chain amine

For the first assay, the target named is T1, tandem Tudor domain (TTD) of human 53BP1 (human, UniProt Q12888 1484-1603). As to the kind of experiment: NMR titration.
T1 sequence (Q12888 1484-1603): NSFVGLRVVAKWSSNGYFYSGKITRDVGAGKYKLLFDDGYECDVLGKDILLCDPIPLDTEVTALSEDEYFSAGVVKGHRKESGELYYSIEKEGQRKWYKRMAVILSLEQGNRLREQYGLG
GHMRAHSSHLCSKKGQST (not fully specified (residue 11)) [p53KC370me2 peptide (recombinant, dimethyllysine analogue at 370)]: the binding result is given as “binds”.
Consider GHMRAHSSHLCSGKGQST (not fully specified (residue 11)) [p53KC370me2K372G peptide], for which the binding result is listed as “binds”.
Regarding GHMRAHSSHLCSKGGQST (not fully specified (residue 11)) [p53KC370me2K373G peptide], the binding result is reported as “binds”.
Consider GHMRAGSSHL[KCme2]SKKGQST [p53H365GKC370me2 peptide], for which the binding result is “binds”.
For the molecule GHMRAHSSHGCSKKGQST (not fully specified (residue 11)) [p53L369GKC370me2 peptide], the binding result is listed as “binds”.
On the same count and under the same terms, the result for GHMRAHSSGLCSKKGQST (not fully specified (residue 11)) [p53H368GKC370me2 peptide] reads “binds”.
Take STSRHKK(Me2)LMFKT (peptide, UniProt P04637 376-387, looked up) [p53K382me2 peptide (residues S376-T387 of p53)]: the binding result is “binds”.
On to GHMSTSRHKCLMFKT (not fully specified (residue 10)) [p53KC382me2 peptide (recombinant, dimethyllysine analogue at 382)], for which the binding result is on record as “binds”.
For GHMSTSGHKCLMFKT (not fully specified (residue 10)) [p53R379GKC382me2 peptide], the binding result is given as “binds”.
On the same count and under the same terms, with GHMSTSRHKCGMFKT (not fully specified (residue 10)) [p53KC382me2L383G peptide] the entry was “binds”; with GHMSTSRHGCLMFKT (not fully specified (residue 10)) [p53K381GKC382me2 peptide], “binds”; with GHMSTSRHKCLMGKT (not fully specified (residue 10)) [p53KC382me2F385G peptide], “binds”.
Consider GHMSTSRGKCLMFKT (not fully specified (residue 10)) [p53H380GKC382me2 peptide], for which the binding result is on record as “binds”.
The same measure, in the same setting: with SSHLKSKKGQSTSRHKKLMFK (peptide, UniProt P04637 366-386, looked up, dimethyllysine at 370; dimethyllysine at 382) [p53K370me2K382me2 peptide (residues S366-K386)] the entry was “binds”.

Another assay deals with T1, tandem Tudor domain (TTD) of human 53BP1. The experiment in a line: solution NMR structure.
In the case of RAHSSHLK(Me2)SKKGQST (peptide, UniProt P04637 363-377, looked up) [p53K370me2 peptide (residues R363-T377 of p53)], the binding result is listed as “binds”.
